Reference: article PMC5737657 (Nucleic Acids Research, 2017)

Target: the molecule itself
Test: crystal structure

B1: VapC26 toxin with N-terminal (His)6 tag (native, co-expressed with VapB26) (natural protein)
chain: MIIDTSALLAYFDAAEPDHAAVSECIDSSADALVVSPYVVAELDYLVATRVGVDAELAVLRELAGGAWELANCGAAEIEQAARIVTKYQDQRIGIADAANVVLADRYRTRTILTLDRRHFSALRPIGGGRFTVIP
Does B1 bind?
Result: binds
